Source: PMC7948466

Columns and labels:
DNMT3A full length = DNMT3A full length (Homo sapiens, UniProt Q9Y6K1 1-912); test: fluorescence anisotropy; unlabeled H3K4me0 peptide (1-21) titrated; 50 nM DNA, 1 uM DNMT3A; FA increases; Fluorescence anisotropy (ex 485 nm, em 520 nm), 5 min incubation at room temperature; binding buffer, salt and pH not given in the material
DNMT3A full length;TDG = DNMT3A full length;TDG (Homo sapiens;Homo sapiens, UniProt Q9Y6K1;Q13569 1-912;1-410, |); test: fluorescence anisotropy; unlabeled H3K4me0 peptide titrated; 50 nM DNA, 1 uM 1:1 complex; FA increases; Fluorescence anisotropy (ex 485 nm, em 520 nm), 5 min incubation at room temperature; binding buffer, salt and pH not given in the material
DNMT3A full length;p53 = DNMT3A full length;p53 (Homo sapiens;Homo sapiens, UniProt Q9Y6K1;P04637 1-912;1-393, |); test: as above

Measured: binding result

Chain of DNMT3A full length (Q9Y6K1 whole entry): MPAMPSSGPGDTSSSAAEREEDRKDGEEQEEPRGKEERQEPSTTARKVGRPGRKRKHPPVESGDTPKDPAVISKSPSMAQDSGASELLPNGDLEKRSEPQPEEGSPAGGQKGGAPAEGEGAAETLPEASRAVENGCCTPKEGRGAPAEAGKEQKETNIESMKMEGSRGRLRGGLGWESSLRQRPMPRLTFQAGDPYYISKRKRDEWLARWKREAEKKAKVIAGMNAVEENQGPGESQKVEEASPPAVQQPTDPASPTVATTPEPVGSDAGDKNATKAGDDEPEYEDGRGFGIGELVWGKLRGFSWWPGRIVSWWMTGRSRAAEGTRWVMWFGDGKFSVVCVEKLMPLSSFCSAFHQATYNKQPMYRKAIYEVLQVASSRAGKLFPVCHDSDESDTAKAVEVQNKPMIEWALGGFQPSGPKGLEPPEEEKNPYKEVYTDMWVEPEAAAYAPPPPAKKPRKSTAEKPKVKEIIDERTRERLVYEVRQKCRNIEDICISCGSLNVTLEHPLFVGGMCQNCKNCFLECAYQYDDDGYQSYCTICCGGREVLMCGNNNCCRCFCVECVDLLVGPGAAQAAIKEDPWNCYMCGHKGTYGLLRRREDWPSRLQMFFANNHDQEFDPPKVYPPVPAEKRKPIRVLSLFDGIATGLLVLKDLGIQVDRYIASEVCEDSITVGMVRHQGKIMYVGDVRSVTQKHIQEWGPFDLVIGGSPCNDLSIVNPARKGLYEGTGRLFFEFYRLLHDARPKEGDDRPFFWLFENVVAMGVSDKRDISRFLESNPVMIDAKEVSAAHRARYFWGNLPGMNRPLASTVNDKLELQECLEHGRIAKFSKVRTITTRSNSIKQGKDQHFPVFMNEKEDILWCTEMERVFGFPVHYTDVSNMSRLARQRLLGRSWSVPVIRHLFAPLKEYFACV
Chain of DNMT3A full length;TDG (Q9Y6K1 whole entry, chain 1 of 2): as the sequence (Q9Y6K1 whole entry) above
Chain of DNMT3A full length;TDG (Q13569 whole entry, chain 2 of 2): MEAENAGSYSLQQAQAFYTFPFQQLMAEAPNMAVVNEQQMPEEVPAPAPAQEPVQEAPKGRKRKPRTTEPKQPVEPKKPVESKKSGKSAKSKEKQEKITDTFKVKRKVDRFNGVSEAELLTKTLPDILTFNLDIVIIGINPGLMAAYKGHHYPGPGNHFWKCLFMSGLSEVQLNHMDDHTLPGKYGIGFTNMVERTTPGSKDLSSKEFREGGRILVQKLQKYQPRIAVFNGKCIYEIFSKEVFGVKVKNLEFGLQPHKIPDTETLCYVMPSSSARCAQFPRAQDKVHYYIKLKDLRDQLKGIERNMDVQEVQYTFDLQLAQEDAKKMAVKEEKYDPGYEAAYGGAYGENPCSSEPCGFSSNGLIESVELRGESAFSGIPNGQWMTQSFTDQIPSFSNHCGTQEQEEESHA

B1: GCbox30 (dsDNA)
DNA 1: TGGATATCTAGGGGCGCTATGATATCT
DNA 2: AGATATCATAGCGCCCCTAGATATCCA
binds: all assays above
